Results: patent US20150118239A1 (GEORG AUGUST UNIVERSIT T G TTINGEN STIFTUNG FFENTLICHEN …, published 2015)

How the values were obtained:
[1] = biological target: T1, Phospho-TDP-43 neuronal cytoplasmic and neuritic deposits (human, UniProt Q13148 1-414, limits assumed, phosphorylated, sites not stated); assay: IHC, brain sections of non-AD neurodegenerative disorders
T1 construct: Tissue aggregates in patients' brain sections

[2] = biological target: T2, Prion protein (PrP) deposits (human, UniProt P04156 23-230); assay: as above
T2 construct: also called PrP immunopositive amyloid plaques, synaptic, plaque-like and perineuronal deposits

[3] = biological target: T3, Phospho-Tau aggregates (tufted astrocytes in PSP, Pick bodies in PiD) (human, UniProt P10636-8 2-441, limits assumed, phosphorylated, sites not stated); assay: as above
T3 construct: Tissue aggregates in patients' brain sections; also called pTau

[4] = biological target: α-Synuclein aggregates (Lewy bodies, Lewy neurites, glial cytoplasmic inclusions) (human, UniProt P37840 1-140); assay: as above
Aβ4-10 = biological target: T4, Aβ4-10 (human); assay: hybridoma screening ELISA
T4 construct: Screening peptide of the hybridoma ELISA
T4 peptide: FRHDSGY

Aβ36-40 = biological target: T5, Aβ36-40 (human); assay: hybridoma screening ELISA
T5 construct: Counter-screening peptide of the hybridoma ELISA
T5 peptide: VGGVV

[5] = biological target: T6, Aβ4-42 low molecular weight (LMW) oligomers (human); assay: native Western blot, sensitivity test
T6 construct: otherwise only LMW oligomers; also called Aβ4-42 oligomers

[6] = biological target: T7, AβpE3-42 low molecular weight (LMW) oligomers (human, N-terminal pyroglutamate at Aβ position 3 (pE3)); assay: native Western blot, sensitivity test
T7 construct: otherwise only LMW oligomers

AβpE3-42 = AβpE3-42 (human, N-terminal pyroglutamate at Aβ position 3 (pE3)); assay: cell-based or functional assay
Aβ4-42 = Aβ4-42 (human); assay: cell-based or functional assay
Aβ4-38 [7] = biological target: Aβ4-38 (human); assay: cell-based or functional assay
Aβ4-40 [8] = biological target: Aβ4-40 (human); assay: cell-based or functional assay
Aβ4-38 [9] = biological target: T8, Aβ4-38 (human); assay: native Western blot, equal amounts of freshly dissolved peptides
T8 construct: Synthetic peptide

Aβ4-40 [10] = biological target: T9, Aβ4-40 (human); assay: as above
T9 construct: Synthetic peptide, the immunogen

Aβ2-17 = biological target: T10, Aβ2-17 (human); assay: pepscan ELISA, coated 16-mer peptides, antibody 7 µg/ml
T10 construct: Pepscan 16-mer
T10 peptide: AEFRHDSGYEVHHQKL

Aβ4-19 = biological target: T11, Aβ4-19 (human); assay: as above
T11 construct: Pepscan 16-mer
T11 peptide: FRHDSGYEVHHQKLVF

Aβ3-18 = biological target: T12, Aβ3-18 (human); assay: as above
T12 construct: Pepscan 16-mer
T12 peptide: EFRHDSGYEVHHQKLV

Aβ5-20 = biological target: T13, Aβ5-20 (human); assay: pepscan ELISA
T13 construct: Pepscan 16-mer
T13 peptide: RHDSGYEVHHQKLVFF

B1: NT4X-167 (antibody, V domains shown)
VH: QVQLKQSGPGLVQPSQSLSITCTVSGFSLTSYGIHWVRQSPGKGLEWLGVMWSGGITDFYAAFISRLSISRDISKSQVFFKMNSLQADDTAIYYCARGSRYALDYWGQGTSVSVSS
VL: DIQMTQTTSSLSASLGDRVTISCRASQDISNYLNWYQQKPDGTVKLLIYYTSRLHSGVPSRFSGSGSGTDYSLTISNLEQEDIATYFCQQGNTLPPTFGGGTKLEIK
notes: also called NT4X-67
binding result [1]: no binding | binding result [2]: no binding | binding result [3]: no binding | binding result [4]: no binding | binding result (Aβ4-10): binds | binding result (Aβ36-40): no binding | peptide amount giving similar signal intensity [5]: 70 ng | peptide amount giving similar signal intensity [6]: 70 ng | viability of SH-SY5Y cells (MTS), aged 10 µM peptide with against without antibody (AβpE3-42): < 0.05 p value | viability of SH-SY5Y cells (MTS), aged 10 µM peptide with against without antibody (Aβ4-42): < 0.01 p value | viability of SH-SY5Y cells (MTS), aged 10 µM peptide with against without antibody (Aβ4-38 [7]): < 0.01 p value | viability of SH-SY5Y cells (MTS), aged 10 µM peptide with against without antibody (Aβ4-40 [8]): < 0.01 p value

B2: NT4X-83 (antibody, V domains shown)
VH: EVHLQQSGAELVKPGASVKLSCTASGFNIRDTYIHWVKQRPEQGLEWIGRVDPANGNTKYDPKFQGKATITADTSSDTAYLQLSSLTAEDTAVYFCARRIYYGYALFAYWGQGTLVTVSA
VL: DIVMTQSPSSLTVTAGEKVTMSCKSSQSLLNSGNQKNYLTWYQQKPGQPPKLLIYWASTRESGVPDRFTGSGSGTDFTLTISSVQAEDLAVYYCQNDYSYPLTFGAGTKLELK
notes: also called Aβ4-40 NT4X-83; DSM ACC3161
binding result (Aβ4-38 [9]): binds | binding result (Aβ4-40 [10]): binds | binding result (Aβ2-17): binds | binding result (Aβ4-19): binds | binding result (Aβ3-18): binds | binding result [1]: no binding | binding result [2]: no binding | binding result [3]: no binding | binding result [4]: no binding | binding result (Aβ5-20): no binding (tested: 7 µg/ml) | binding result (Aβ4-10): binds | binding result (Aβ36-40): no binding | peptide amount giving similar signal intensity [5]: 500 ng | peptide amount giving similar signal intensity [6]: 500 ng
